The target of the assay is M2G peptide conjugated with BSA (influenza A virus, A/Puerto Rico/8/34 (H1N1)). As to the kind of experiment: peptide-BSA ELISA (++ EC50<10^-9M; + 10^-9M<EC50<10^-8M). Background: In an ELISA, binding on a coated surface is turned into a signal by an enzyme label.

For orientation: EC50 means the concentration at which the effect is half-maximal.

Turning to mouse anti-M2 antibody 14C2, the 50% effective concentration (EC50) is < 1 nM.

The values are drawn from patent publication US20090162366A1.
